Measurements taken from PMC3602430, “Identification of a Missing Link in the Evolution of an Enzyme into a Transcriptional Regulator” (PLoS ONE, 2013).
One block for each molecule: values may come before it.

Key:
[1] = biological target: T1, BzdR (CBzdR, C-terminal effector-binding domain); experiment: intrinsic protein fluorescence titration, one-site model; design: species or system Azoarcus sp. CIB
T1 construct: His6-CBzdR, residues 131–298

[2] = biological target: NBzdR, N-terminal DNA-binding domain of BzdR (Azoarcus sp. CIB); experiment: AUC; sedimentation equilibrium of the purified proteins in solution, data fitted to dimer and monomer species; sedimentation velocity showed single species (1.8 and 2.3 S); conditions not shown
[3] = biological target: NBzdRL, N-terminal domain of BzdR fused to its linker region (Azoarcus sp. CIB); experiment: as above
[4] = biological target: Q1 chimera (NBzdRL fused to E. coli shikimate kinase I) (Azoarcus sp. CIB | E. coli) (UniProt P0A6D7); experiment: AUC; sedimentation velocity of purified His6-tagged proteins, c(s) distribution; s-value did not change significantly over 1-30 µM protein
[5] = substrate: O=C(O)C1=C[C@@H](O)[C@@H](O)[C@H](O)C1; experiment: coupled pyruvate kinase/lactate dehydrogenase shikimate kinase assay (Km); assay type: biochemical, Escherichia coli; conditions: Mg2+, ATP

Molecule: CC(C)(COP(=O)(O)OP(=O)(O)OC[C@H]1O[C@@H](n2cnc3c(N)ncnc32)[C@H](O)[C@@H]1OP(=O)(O)O)[C@@H](O)C(=O)NCCC(=O)NCCSC(=O)c1ccccc1 [benzoyl-CoA]
Kd [1]: 203 ± 35 µM

stoichiometry N [2]: 2
Molecule: NBzdR, N-terminal DNA-binding domain of BzdR (domain or fragment)

stoichiometry N [3]: 2
Molecule: NBzdRL, N-terminal domain of BzdR fused to its linker region (domain or fragment)

stoichiometry N [4]: 2
Molecule: Q1 chimera (NBzdRL fused to E. coli shikimate kinase I) (from UniProt P0A6D7 1-173)

B1: shikimate kinase I (SKI) (Escherichia coli K-12) (protein)
chain: AEKRNIFLVGPMGAGKSTIGRQLAQQLNMEFYDSDQEIEKRTGADVGWVFDLEGEEGFRDREEKVINELTEKQGIVLATGGGSVKSRETRNRLSARGVVVYLETTIEKQLARTQRDKKRPLLHVETPPREVLEALANERNPLYEEIADVTIRTDDQSAKVVANQIIHMLESN
notes: His6-SKI
Km [5]: 400 µM
